Measured values reported in publication PMC3322389 (Structure(London, England:1993), 2012).

Molecular target: the molecule itself
Assay: AUC

B1: Aureochrome1 LOV domain (AuLOV), residues 176-337 of V. frigida Aureochrome1 (domain or fragment, UniProt A8QW55 176-337, looked up)
chain: DSLIAQCSPEADTLLTDNPSKANRILEDPDYSLVKALQMAQQNFVITDASLPDNPIVYASRGFLTLTGYSLDQILGRNCRFLQGPETDPRAVDKIRNAITKGVDTSVCLLNYRQDGTTFWNLFFVAGLRDSKGNIVNYVGVQSKVSEDYAKLLVNEQNIEYK
Which “stoichiometry N” value does the source give for B1 here?
The value was 2.
